In the RNAGym collection of RNA variant scans (doi:10.1073/pnas.2313332121):
This sample holds only a part of the variants without activity.

B1: TPR 5TU (parent)
chain: GGAUCUUCUCGAUCUAACAAAAAAGACAAAUCUGCCACAAAGCUUGAGAGCAUCUUCGGAUGCAGAGGCGGCAGCCUUCGGUGGCGCGAUAGCGCCAACGUUCUCAACUAUGACACGCAAAACGCGUGCUCCGUUGAAUGGAGUUUAUCAUG

Variants of: B1
Test: polymerase ribozyme fitness, log enrichment relative to wild type (log ratio); higher = more active; in vitro selection for triplet polymerase activity
How it was run: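 Libraries of mutants in each subunit of a heterodimeric triplet polymerase ribozyme were generated by PCR and transcribed. In triplicate, each went through one in vitro selection round: annealing with biotinylated primer, partner subunit and triplets; frozen incubation at −7 °C; gel excision of extended constructs; streptavidin-bead capture; RT-PCR. Fitness, taken from Illumina sequencing of input and output libraries, is the logarithm of a genotype's enrichment over wild-type enrichment, averaged across replicates with inverse-variance weights. The logarithm is base 2, and genotypes needed ≥10 input reads and ≥1 read per output to be kept.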

Polymerase ribozyme fitness (log ratio), -2.91:
C8G U55A

Polymerase ribozyme fitness (log ratio), -2.6:
C8A C85U

Polymerase ribozyme fitness (log ratio), -3.79:
C8A G50U

Polymerase ribozyme fitness (log ratio), -2.7:
C8U G58C

Polymerase ribozyme fitness (log ratio), -3.92:
U7C U56A A91U A106U C132U

Polymerase ribozyme fitness (log ratio), -4.17:
C8A A73G C93A U146C

Polymerase ribozyme fitness (log ratio), -4.13:
C8A A26G A37C G62A A120G G140C G152A

Polymerase ribozyme fitness (log ratio), -1.08:
C8U U13C A22G C93U G126A

Polymerase ribozyme fitness (log ratio), -3.64:
C8G C93U

Polymerase ribozyme fitness (log ratio), -2.8:
C8U G83C

Polymerase ribozyme fitness (log ratio), -2.21:
U7G C54U G92U

Polymerase ribozyme fitness (log ratio), -3.95:
C8A U15G C18U G58C C96G

Polymerase ribozyme fitness (log ratio), -3.5:
C8U G83U
C8A U53A G81C C85G C108U A138G A147G A150U G152U

Polymerase ribozyme fitness (log ratio), -2.47:
U7G A19G

Polymerase ribozyme fitness (log ratio), -3.02:
U7G G50U

Polymerase ribozyme fitness (log ratio), -3.25:
U7G U15A G59C G124C G136A

Polymerase ribozyme fitness (log ratio), -3.42:
C8U C123G

Polymerase ribozyme fitness (log ratio), -2.93:
U7G C95U

Polymerase ribozyme fitness (log ratio), -3.7:
U7C G86U

Polymerase ribozyme fitness (log ratio), ≤ -4.2:
C8G A17G G25A C54G G71C C87U U90A C96U C132U
U7G C75A G84A G94U A106U A120C
C8G A24G C54U G68A G71A A91U C95A
C8A A16C C18G A49C C95U A98G A142U
C8U A16U A49C A73C C85U C108G
C8U C57U A60C A97U A115U
C8U G42C C51U U61G C95A C125G U127G A137U C149G
C8U A26U A120G C125U
C8G G84U
C8A A16G A29U A47U G71U C93A A106G G133U C149U
C8U A19C G50A C96U
C8A C14U C54A C99A
C8G C18G C57G G83U C118U G128A
C8U U9G G70A C76A C87G A89C
C8A A52C C75U C95G C96U U109A
C8G U13C A17U A29U C38U U44A G84U C87G G92A G140A
C8G G84U G100U C132U U144A
C8G A23U A30U G42C G83C A97U
C8G U13C A16G A52G G83A U101G G126A
C8A U44A C51A A66G C85U U130G
U7G G42A U44A G68C A91U G117A U135A
C8A A64C C72A C95U C116G A121C A138C
C8U A22U C27U G70A C85A A89U G92U
C8G A16U C79G G141A
C8G A29C U55G A60G C85G A89G G140C
C8A U55A A66C G67U U77A C99U C108U G133C G136A
C8G C18U C38U G50C C54U G65C C87U C99G
U7G A23C A24U C54G
C8G A24G A30G G70A G136C
C8G A12U G25A A28U A39C G58C G94U U144G
C8A A17U A26U G48U G68U C93G C132G G141C U148G
C8A A16G G50U G83C U135C G136C
C8U A22C A26C G50C C85A C116U C118A
U7G A12G C18G C32U G94C A115U
C8U A21G A41C G50A G65C G88A
C8G C79A A91U A107C G124C U144C
C8A U55A G88A G133C G136A U139A G143C
C8A A12G C85U C103G G124U C129A
C8A A39G G84U A106U C149G
C8G C14A A30C C69U C76G A98U U144G
C8A C18G A40G C54G A73C C87A U90A C114U
U7G C10A C75A C87A C125G A138U
C8A A47G A49G A52C U55A G88U U104A A119U U146C U148A
C8G G11A A17U G71U G88U U127C U135G U148C A150C
C8U A52C G68C
C8G A24U A29G C54G C57U G94A A98G U135G
C8G G25C U33C C93U G124C
C8G C14U A29U G50U C54U C75G A119U
U7G A23G U53A C99G C116A C125G A137C
C8A A12G A17G U56A A97U A147C
C8A U56A A60U C93A U109G A113U U139G U145C A147G
C8U G88U G92A
C8A G88U G92U C95U A106C U127G
C8G G34U A73C C85G U148G
C8A C27A C57G G92A
U7G C10A C51A U82G G88A C108U U111C G133U G143C
U7G C63G C76G C93G A97U C99G A106U
C8U C43G A47U A64G G70A C79G C99G U135C G136C U145A
U7G C38A G83A G84U U148C
U7G U53A A147G
C8G A20C A73U C99G A106G G140A U144G A147C
C8G G50C U55C G100A A115G U127C
C8G A29C G34C U78G G86U A97C C149U
U7G A20U U53A G88U C96A A113U C114U A122U U139A A142U
C8G G71A G74A C79U C87A C116A
C8U G81A G88A
U7G G50C C87G C125U G133A G140A A142U
C8U A28U G58A G74C U127G G133C A142U C149G
C8G C57U G59A C69G G88U C96G A120U
C8U A16C U53A C54A G71C G141C U148C C149U
C8A G42A G59U G67C
U7G A30C C32G C51U U144A
C8G G42C G50C A91C C93A
C8U A52G C85A A119U U130G
U7G C32U C54G C96U
C8G U31A G34U C57G C93G
C8U C43U G48C U55A G92C
C8A C57U G67C C95A A97G U151A
U7C U55A C63U G88U A107U U145A
C8A U56A C79U G84C G112A C131U U146A
C8U U15G A17G A30G U44G C76A C87A
C8G G48C G80U G84U C125U G141U
C8G C10A A30C U56A C57G C87U U102G G143C
U7G A21C C32A A49C U53C C69U A142C
U9A A12G C14U A23U A40C C76G G86C U90C C118A C131G
C8G A29G A60U U77A C93A C123U
C8G A20G U44G G48U G84U G128U U144A
C8A A22G U56A C57U C85G
C8U A41C U44G G81C G92U C93G
U7G A23C A28U C38G A121G
C8A G48C U55A
U7G A41U C43U U82G G92U U146A
C8A C10U U33A G81U C87A C103G A147C
C8A A28U C79U C93U C105U
C8G C54U G59C G81U C96A U144C
C8A C27U U44G A49C C72G C79A G92A G143U
U7G U45A C57U C76A G83A G84A
U7G A21C C36U C54U C79G G83A U144A
C8U A28U G62U A113C
C8G A24G U33G G59A G71A G74A U144C
C8A C18U C35G C57U C76A G92U G117C U134A
C8A A52C C87A
C8G A23U C27G A40G A49C C87U U104G U134G G140A
C8U A28U U53A G67A C69U G88C A89U A98G A138C
U7G A47C A49U G86U C99U
C8A G11A G50C U82A G83C
C8U G81U C95U
C8U U15G A49G G59A A60G G70A G86C C93U A106G U135C
C8G G83A A97U U127A
C8U C43U C85U G100A A142U
U7G G42C U61A C96U G112C G124C G126C G136A
C8U G25C U82A C87A
C8G G11A A52G A89U C93G
U7G A19U A52U U56A A91G C108A
C8G G94A C103U G128C U134A
C8U A37C C93A U151G
U7G U53A U56G G84U U148C
C8U C10G A29U C85U C116U
C8A U13G G50C C76G C118A
C8G U61G G81A C87U G92C A121G C132A U144A G152A
C8U A19C A40G C57U G92U G140A U146A
U7G C76A C85G C95A A121U
C8G A17C C18G A41C A52U G83A G140U
C8A A17C A26C A40C C87U U144G
U7C U9G C54U A107C U127A
C8U A40C A41G G50A U56A C93A
C8U C35A C72U C76U G88A G92U A121U
U7G A40G A52C G65U A73G U82A C93G U134A U148G
C8A U9C A30U C87U C95U C129A
U7G G11C U33C A64U C96A A122G G124A G140U
C8U C38U A49G C79G C93A C103G G136U
U7G G74A C103A

Polymerase ribozyme fitness (log ratio), -4.19:
C8U A28G G34A C36U G86U A91G A110U

Polymerase ribozyme fitness (log ratio), -2.94:
C8U G83A

Polymerase ribozyme fitness (log ratio), -4.11:
C8A A142C

Polymerase ribozyme fitness (log ratio), -2.51:
C8U U55A

Polymerase ribozyme fitness (log ratio), -2.39:
U7G G92U

Polymerase ribozyme fitness (log ratio), -3.44:
C8U C85G

Polymerase ribozyme fitness (log ratio), -3.6:
U7G A47U U55A C57A C63U C95U

Polymerase ribozyme fitness (log ratio), -3.73:
C8U A47G

Polymerase ribozyme fitness (log ratio), -3.71:
C8G U13G C116G

Polymerase ribozyme fitness (log ratio), -3.94:
C8U G81C

Polymerase ribozyme fitness (log ratio), -2.98:
C8U A106G

Polymerase ribozyme fitness (log ratio), -3.1:
C8G G92C

Polymerase ribozyme fitness (log ratio), -4.06:
C8G A30G G48A C69G G86A G143U

Polymerase ribozyme fitness (log ratio), -4.16:
C8U A22U U56A A73G A121G C123U
C8G G11U U31A U90G A137C A150U
